According to article PMC11172311, “Structural and Interactional Analysis of the Flavonoid Pathway Proteins: Chalcone Synthase, Chalcone Isomerase and Chalcone Isomerase-like Protein” (International Journal of Molecular Sciences, 2024):

Assays:
[1] = molecular target: Panicum virgatum chalcone synthase (PvCHS) (Panicum virgatum)
[2] = molecular target: Panicum virgatum chalcone synthase (PvCHS) (Panicum virgatum); assay: ITC; PvCHS in the well, PvCHIL in the syringe; 22 injections of 2 µL; PBS; with naringenin chalcone at 5x molar excess
[3] = molecular target: Panicum virgatum chalcone synthase (PvCHS) (Panicum virgatum); remark: listed apart in the source
[4] = molecular target: Panicum virgatum chalcone synthase (PvCHS) (Panicum virgatum); assay: ITC; PvCHS in the well, PvCHIL in the syringe; 22 injections of 2 µL; PBS; with naringenin at 5x molar excess
[5] = molecular target: Panicum virgatum chalcone synthase (PvCHS) (Panicum virgatum); assay: ITC; PvCHS in the well, PvCHIL in the syringe; 22 injections of 2 µL; PBS; no small molecule added
[6] = molecular target: Panicum virgatum chalcone synthase (PvCHS) (Panicum virgatum); assay: as above; remark: listed apart in the source
[7] = molecular target: Panicum virgatum chalcone isomerase-like protein (PvCHIL) (Panicum virgatum); assay: FRET or BRET; PvCHIL labelled with ATTO 488 (donor) held at 1 µM, PvCHS labelled with ATTO 550 (acceptor) gradually increased; PBS pH 7.4; spectra in triplicate
[8] = molecular target: Panicum virgatum chalcone synthase (PvCHS) (Panicum virgatum); assay: crystal structure; PvCHS co-crystallised with naringenin and CoA, space group P1, four molecules in the unit cell; hanging drop, 277 K; data at 100 K
[9] = molecular target: Panicum virgatum chalcone isomerase (PvCHI) (Panicum virgatum); assay: FRET or BRET; PvCHI labelled with ATTO 488 (donor) held at 1 µM, PvCHS labelled with ATTO 647N (acceptor) gradually increased (0.5 to 10 µM); PBS pH 7.4; spectra in triplicate

## Panicum virgatum chalcone isomerase (PvCHI) (enzyme)
[1]
  Vmax of PvCHS for p-coumaroyl-CoA (naringenin plus naringenin chalcone formed) in the presence of PvCHI against PvCHS alone: 24 fold
  Vmax of PvCHS for p-coumaroyl-CoA in the three-protein system (PvCHS, PvCHI and PvCHIL) against PvCHS alone; PvCHIL does not compete with PvCHI: 437 fold

## Panicum virgatum chalcone isomerase-like protein (PvCHIL) (natural protein)
[2]
  Kd: 170 µM
  dH: 36.4 kcal/mol
[3]
  Vmax of PvCHS for p-coumaroyl-CoA in the presence of PvCHIL (5:1 molar ratio) against PvCHS alone: 7.7 fold
[4]
  Kd: 7.46 µM
  dH: 5.34 kcal/mol
[5]
  dH: 31.9 kcal/mol
[6]
  Kd: 76.3 µM
  dH: 31.8 kcal/mol

## Panicum virgatum chalcone synthase (PvCHS) (enzyme)
[7]
  Kd: 26.5 µM
[8]
  stoichiometry N: 2
[9]
  Kd: 0.637 µM
